The test concerns the target T1, E-epitope tagged human RIP2 (human, UniProt O43353 1-540).
T1 construct: ORF cloned in pCAGGS-E, expressed in 293T cells; also called E-RIP2
Kind of test: co-immunoprecipitation from 293T lysates, anti-Flag IP, anti-E immunoblot. As for the experimental part: FIG. 4: Interactions of INCA with other CARD-containing proteins. Co-immunoprecipitation assays were performed using lysates from 293T cells that have been transiently transfected with plasmids encoding various epitope-tagged proteins as indicated, including Flag-INCA, E-INCA, E-procaspase-1, E-COP, E-ICEBERG, E-RIP2 and E-procaspase-2 CARD. Immunoprecipitates were prepared using anti-Flag antibody adsorbed to protein G-sepharose and analyzed by SDS-PAGE/immunoblotting using anti-E epitope tag antibody and chemoluminescence-based detection. Aliquots of the same lysates were also analyzed directly by SDS-PAGE/immunoblotting as indicated. IP, immunoprecipitation; WB: Western blotting.
293T is a human embryonal kidney carcinoma cell line. 293T cells were routinely transfected using the calcium phosphate precipitation method (O'Mahoney and Adams, 1994). Cells were seeded the day before transfection at 2×10⁵ cells/6-well. Cells were transfected for 4 h, washed and incubated for another 24 h before lysates were prepared by harvesting the cells and lysing them in ice-cold NP-40 lysis buffer (10 mM HEPES pH 7.4, 142.5 mM KCl, 0.2% NP-40, 5 mM EGTA), supplemented with 1 mM DTT, 12.5 mM β-glycerophosphate, 1 mM Na₃VO₄, 1 mM PMSF, and 1× protease inhibitor mix (Roche, Basel, Switzerland). […] Alternatively, lysates were analyzed directly by immunoblotting after normalization for total protein content. […]
(A western blot detects proteins with antibodies after separation by electrophoresis.)

T1 sequence (O43353 whole entry): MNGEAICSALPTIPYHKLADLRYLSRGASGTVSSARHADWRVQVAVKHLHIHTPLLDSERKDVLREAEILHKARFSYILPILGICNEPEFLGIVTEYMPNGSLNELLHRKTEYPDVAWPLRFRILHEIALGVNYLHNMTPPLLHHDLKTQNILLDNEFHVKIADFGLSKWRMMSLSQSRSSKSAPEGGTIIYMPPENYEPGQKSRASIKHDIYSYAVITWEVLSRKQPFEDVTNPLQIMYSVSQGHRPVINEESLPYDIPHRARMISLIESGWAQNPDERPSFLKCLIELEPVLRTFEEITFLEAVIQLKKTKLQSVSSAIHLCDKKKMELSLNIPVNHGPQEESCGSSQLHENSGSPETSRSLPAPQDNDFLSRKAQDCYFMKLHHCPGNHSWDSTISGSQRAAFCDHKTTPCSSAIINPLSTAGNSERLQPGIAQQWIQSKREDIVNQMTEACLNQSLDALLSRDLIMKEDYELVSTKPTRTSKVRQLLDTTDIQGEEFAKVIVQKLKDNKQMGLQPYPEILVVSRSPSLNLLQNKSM

B1: Flag-tagged INCA (Inhibitory CARD) (other, not shown: small tags and cut ends)
chain: MADKVLKEKRKQFIRSVGEGTINGLLGELLETRVLSQEEIEIVKCENATVMDKARALLDSVIRKGAPACQICITYICEEDSHLAGTLGLSAGPTSGNHLTTQDSQIVLPS
notes: Expressed in 293T cells (pCAGGS-Flag) for co-immunoprecipitation; Flag-tagged INCA also expressed stably in THP-1 cells from a retroviral vector; also called Flag-INCA
B1: the binding result was “no binding”.

Values taken from patent publication US20080108546A1 (VLAAMS INTERUNIVERSITAIR INSTITUUT, published 2008).
